Sequences and labels used below:
B1: Discoidin, CUB and LCCL domain-containing protein 2 (Homo sapiens), Q96PD2 (parent)
chain: MASRAVVRARRCPQCPQVRAAAAAPAWAALPLSRSLPPCSNSSSFSMPLFLLLLLVLLLLLEDAGAQQGDGCGHTVLGPESGTLTSINYPQTYPNSTVCEWEIRVKMGERVRIKFGDFDIEDSDSCHFNYLRIYNGIGVSRTEIGKYCGLGLQMNHSIESKGNEITLLFMSGIHVSGRGFLASYSVIDKQDLITCLDTASNFLEPEFSKYCPAGCLLPFAEISGTIPHGYRDSSPLCMAGVHAGVVSNTLGGQISVVISKGIPYYESSLANNVTSVVGHLSTSLFTFKTSGCYGTLGMESGVIADPQITASSVLEWTDHTGQENSWKPKKARLKKPGPPWAAFATDEYQWLQIDLNKEKKITGIITTGSTMVEHNYYVSAYRILYSDDGQKWTVYREPGVEQDKIFQGNKDYHQDVRNNFLPPIIARFIRVNPTQWQQKIAMKMELLGCQFIPKGRPPKLTQPPPPRNSNDLKNTTAPPKIAKGRAPKFTQPLQPRSSNEFPAQTEQTTASPDIRNTTVTPNVTKDVALAAVLVPVLVMVLTTLILILVCAWHWRNRKKKTEGTYDLPYWDRAGWWKGMKQFLPAKAVDHEETPVRYSSSEVNHLSPREVTTVLQADSAEYAQPLVGGIVGTLHQRSTFKPEEGKEAGYADLDPYNSPGQEVYHAYAEPLPITGPEYATPIIMDMSGHPTTSVGQPSTSTFKATGNQPPPLVGTYNTLLSRTDSCSSAQAQYDTPKAGKPGLPAPDELVYQVPQSTQEVSGAGRDGECDVFKEIL

Variants of B1 are the subject of the assay “crkl_human CRKL, P46109”. The conditions noted are these: with crkl_human CRKL.
Variants of B1 are the subject of the assay “fyn_human FYN, P06241”. The conditions noted are these: with fyn_human FYN.

The record followed here is IntAct's records for PubMed 23770091.

Chain of fyn_human FYN, P06241 (P06241 whole entry, looked up): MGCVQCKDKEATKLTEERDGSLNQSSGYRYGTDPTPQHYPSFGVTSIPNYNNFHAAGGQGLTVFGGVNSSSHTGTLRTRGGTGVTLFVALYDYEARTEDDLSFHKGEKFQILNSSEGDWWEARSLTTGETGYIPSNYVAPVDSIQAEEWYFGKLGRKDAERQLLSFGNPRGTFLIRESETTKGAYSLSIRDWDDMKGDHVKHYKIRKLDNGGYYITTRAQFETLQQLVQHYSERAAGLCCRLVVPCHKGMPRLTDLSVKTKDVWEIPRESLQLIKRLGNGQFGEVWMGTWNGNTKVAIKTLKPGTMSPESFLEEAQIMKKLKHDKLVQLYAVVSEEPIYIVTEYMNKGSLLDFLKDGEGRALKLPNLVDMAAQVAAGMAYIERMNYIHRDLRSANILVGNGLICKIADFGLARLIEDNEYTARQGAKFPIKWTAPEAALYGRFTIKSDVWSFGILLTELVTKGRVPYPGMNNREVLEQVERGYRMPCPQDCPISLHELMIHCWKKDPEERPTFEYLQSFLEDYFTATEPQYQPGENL
Chain of crkl_human CRKL, P46109 (P46109 whole entry): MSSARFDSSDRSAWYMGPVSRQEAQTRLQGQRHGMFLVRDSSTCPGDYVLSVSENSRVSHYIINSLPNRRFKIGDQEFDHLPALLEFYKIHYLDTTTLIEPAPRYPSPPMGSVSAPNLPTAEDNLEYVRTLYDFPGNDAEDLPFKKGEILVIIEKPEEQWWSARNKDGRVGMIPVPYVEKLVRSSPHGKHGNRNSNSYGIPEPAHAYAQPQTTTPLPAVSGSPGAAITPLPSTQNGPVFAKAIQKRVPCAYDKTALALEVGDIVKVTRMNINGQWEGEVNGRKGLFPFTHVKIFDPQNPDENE

As for Y666F, the “effect of a mutation on the interaction” value with crkl_human CRKL, P46109 is recorded as “disrupting interaction”; with fyn_human FYN, P06241 it was “disrupting interaction”.

Y677F: the “effect of a mutation on the interaction” value is listed as “disrupting interaction” with crkl_human CRKL, P46109 and “disrupting interaction” with fyn_human FYN, P06241.

In the case of Y621F, the “effect of a mutation on the interaction” value in the assay with crkl_human CRKL, P46109 was “disrupting interaction”; in the assay with fyn_human FYN, P06241, “disrupting interaction”.

For the variant Y732F, the “effect of a mutation on the interaction” value with crkl_human CRKL, P46109 is “disrupting interaction”; in the assay with fyn_human FYN, P06241, “disrupting interaction”.

Y655F: the “effect of a mutation on the interaction” value is reported as “disrupting interaction” with crkl_human CRKL, P46109 and “disrupting interaction” in the assay with fyn_human FYN, P06241.

Take Y750F: the “effect of a mutation on the interaction” value with crkl_human CRKL, P46109 is “disrupting interaction”; with fyn_human FYN, P06241 it was “disrupting interaction”.

Y565F: the “effect of a mutation on the interaction” value is reported as “disrupting interaction” with crkl_human CRKL, P46109 and “disrupting interaction” with fyn_human FYN, P06241.
